T1: FcγRIIa H (human, UniProt P12318 34-217)
T1 construct: extracellular domain; also called FcγRIIa type H; 2aH
T1 sequence (looked up): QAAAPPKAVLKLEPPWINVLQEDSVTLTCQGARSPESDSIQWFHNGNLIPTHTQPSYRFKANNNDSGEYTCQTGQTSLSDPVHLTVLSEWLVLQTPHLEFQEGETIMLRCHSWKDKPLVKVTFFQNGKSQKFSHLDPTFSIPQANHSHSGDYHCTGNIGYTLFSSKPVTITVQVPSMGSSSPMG

T2: FcγRIIb (human, UniProt P31994 43-217)
T2 construct: extracellular domain; also called 2b; FcgRIIb
T2 sequence (looked up): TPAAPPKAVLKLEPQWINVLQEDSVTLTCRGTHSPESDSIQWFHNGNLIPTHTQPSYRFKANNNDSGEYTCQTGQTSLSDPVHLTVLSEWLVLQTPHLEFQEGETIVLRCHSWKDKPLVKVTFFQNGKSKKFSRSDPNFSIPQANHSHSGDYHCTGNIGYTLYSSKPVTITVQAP

B1: GpH7-A5/GpH7-B3 variant E269_13S/GpL16-k0 (antibody, human IgG1, kappa)
heavy 1: not shown
heavy 2: not shown
light: DIVMTQSPLSLPVTPGEPASISCQASESLVHSNRNTYLHWYLQKPGQSPQLLIYKVSNRFSGVPDRFSGSGSGTDFTLKISRVEAEDVGVYYCSQNTHVPPTFGQGTKVEIERTVAAPSVFIFPPSDEQLKSGTASVVCLLNNFYPREAKVQWKVDNALQSGNSQESVTEQDSKDSTYSLSSTLTLSKADYEKHKVYACEVTHQGLSSPVTKSFNRGEC
notes: Heterodimerized anti-glypican-3 IgG1 (He Ab); mutation in the B3 H chain only; also called He Ab
B2: GpH7-A5/GpH7-B3 variant D270_18N/GpL16-k0 (antibody, human IgG1, kappa)
heavy 1: not shown
heavy 2: not shown
light: B1 light
notes: as for B1
B3: GpH7-A5/GpH7-B3 variant E269_04F/GpL16-k0 (antibody, human IgG1, kappa)
heavy 1: not shown
heavy 2: not shown
light: B1 light
notes: as for B1
B4: GpH7-A5/GpH7-B3 variant E269_02A/GpL16-k0 (antibody, human IgG1, kappa)
heavy 1: not shown
heavy 2: not shown
light: B1 light
notes: as for B1
B5: GpH7-A5/GpH7-B3 variant P271_20W/GpL16-k0 (antibody, human IgG1, kappa)
heavy 1: not shown
heavy 2: not shown
light: B1 light
notes: as for B1
B6: GpH7-A5/GpH7-B3 variant D270_20W/GpL16-k0 (antibody, human IgG1, kappa)
heavy 1: not shown
heavy 2: not shown
light: B1 light
notes: as for B1
B7: GpH7-A5/GpH7-B3 variant P271_15Y/GpL16-k0 (antibody, human IgG1, kappa)
heavy 1: not shown
heavy 2: not shown
light: B1 light
notes: as for B1
B8: GpH7-A5/GpH7-B3 variant E269_15Y/GpL16-k0 (antibody, human IgG1, kappa)
heavy 1: not shown
heavy 2: not shown
light: B1 light
notes: as for B1
B9: GpH7-A5/GpH7-B3 variant Q295_13S/GpL16-k0 (antibody, human IgG1, kappa)
heavy 1: not shown
heavy 2: not shown
light: B1 light
notes: as for B1
B10: GpH7-A5/GpH7-B3 variant E269_06M/GpL16-k0 (antibody, human IgG1, kappa)
heavy 1: not shown
heavy 2: not shown
light: B1 light
notes: as for B1
B11: GpH7-A5/GpH7-B3 variant Q295_05P/GpL16-k0 (antibody, human IgG1, kappa)
heavy 1: not shown
heavy 2: not shown
light: B1 light
notes: as for B1
B12: GpH7-A5/GpH7-B3 variant E269_19Q/GpL16-k0 (antibody, human IgG1, kappa)
heavy 1: not shown
heavy 2: not shown
light: B1 light
notes: as for B1
B13: GpH7-A5/GpH7-B3 variant Q295_03V/GpL16-k0 (antibody, human IgG1, kappa)
heavy 1: not shown
heavy 2: not shown
light: B1 light
notes: as for B1
B14: GpH7-A5/GpH7-B3 variant D270_19Q/GpL16-k0 (antibody, human IgG1, kappa)
heavy 1: not shown
heavy 2: not shown
light: B1 light
notes: as for B1
B15: GpH7-A5/GpH7-B3 variant D270_13S/GpL16-k0 (antibody, human IgG1, kappa)
heavy 1: not shown
heavy 2: not shown
light: B1 light
notes: as for B1
B16: GpH7-A5/GpH7-B3 variant D270_15Y/GpL16-k0 (antibody, human IgG1, kappa)
heavy 1: not shown
heavy 2: not shown
light: B1 light
notes: as for B1
B17: GpH7-A5/GpH7-B3 variant E269_08L/GpL16-k0 (antibody, human IgG1, kappa)
heavy 1: not shown
heavy 2: not shown
light: B1 light
notes: as for B1

Tests used:
FcγRIIa H [1] = target: T1, FcγRIIa H; assay: ratio of He/Con_2aH to He/Con_2b (FcγRIIb); SPR
FcγRIIb = target: T2, FcγRIIb; assay: SPR (Biacore), captured antibody, FcγR as analyte; GpH7-A5/GpH7-B3/GpL16-k0 = 100
Experimental: (§1) The heterodimerized antibodies He Abs in which one of the H chains was introduced with an alteration were assayed for their binding activities to each activating FcγR and inhibitory FcγR according to the method described in Example 4. […] The activating FcγRs in FIGS. 26, 27, 28, and 29 are FcγRIa, FcγRIIa (R), FcγRIIa (H), and FcγRIIIa, respectively.
(§2) Analysis of interaction between objective antibody and the FcγR was carried out using Biacore T100 (GE Healthcare). HBS-EP+ (GE Healthcare) was used as the running buffer, and the measurement temperature was set to 25° C. Chips produced by immobilizing the antigen peptide by the amine coupling method to a Series S Sencor Chip CM5 (GE Healthcare), or alternatively, chips produced by allowing preliminarily biotinylated antigen peptides to interact with and immobilize onto a Series S Sensor Chip SA (certified) (GE Healthcare) were used. Antibodies of interest were captured onto an antigen peptide-immobilized chip, and allowed to interact to each FcγR diluted with running buffer. To regenerate and repeatedly use the chip, the antibodies captured on the chip were washed off by reacting 10 mM glycine-HCl, pH 1.5.

FcγRIIa H [2] = target: T1, FcγRIIa H; assay: as above
Experimental: as §1, §2

| Binder | He_2aH/2b (IIaH/IIb ratio) (FcγRIIa H [1]) | He/Con_2b (relative binding) (FcγRIIb) | He/Con_2aH (relative binding) (FcγRIIa H [2]) |
| --- | --- | --- | --- |
| B1 | 1.46 | 47.8% | 70% |
| B2 | 1.55 | 40.3% | 62.5% |
| B3 | 1.52 | 45% | 68.5% |
| B4 | 1.56 | 49.9% | 77.8% |
| B5 | 1.33 | 58.1% | 77.4% |
| B6 | 1.74 | 34.7% | 60.2% |
| B7 | 1.24 | 52.3% | 64.6% |
| B8 | 1.57 | 44.7% | 70.4% |
| B9 | 1.22 | 56.9% | 69.4% |
| B10 | 1.58 | 46.7% | 73.6% |
| B11 | 1.53 | 67.5% | 103% |
| B12 | 1.81 | 44.3% | 80.2% |
| B13 | 1.22 | 75.7% | 92% |
| B14 | 1.77 | 48% | 85% |
| B15 | 1.61 | 44.2% | 71.2% |
| B16 | 1.6 | 44.9% | 71.9% |
| B17 | 1.57 | 42.9% | 67.4% |

Reference: patent publication US20150344570A1 (published 2015)
